The target in assay [1] is T1, MNoV (MNV1) strain CW3 VP1 protruding (P) domain (murine norovirus (MNV1 strain CW3), UniProt Q80J94 229-540).
T1 sequence: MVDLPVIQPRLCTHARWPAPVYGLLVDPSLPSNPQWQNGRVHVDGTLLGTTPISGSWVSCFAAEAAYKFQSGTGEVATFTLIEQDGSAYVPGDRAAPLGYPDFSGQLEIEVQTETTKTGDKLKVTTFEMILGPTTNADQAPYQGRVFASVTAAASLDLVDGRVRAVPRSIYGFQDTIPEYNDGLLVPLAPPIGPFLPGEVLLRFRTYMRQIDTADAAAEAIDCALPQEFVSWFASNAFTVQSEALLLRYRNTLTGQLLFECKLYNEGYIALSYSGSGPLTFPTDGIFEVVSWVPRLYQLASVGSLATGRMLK
The assay is described as follows: BLI. In general terms: Biolayer interferometry detects binding as a change in optical thickness at a sensor tip.

The target of assay [2] is T1, MNoV (MNV1) strain CW3 VP1 protruding …. In words: ITC.
The target is the same in assay [3]. In words: SPR.

“And” between values parts separate entries of the source, which are not always exact repeats. Identical values can stand only once.

B1: Fc–CD300lf fusion protein (Fc fusion)
chain: EDPVTGPEEVSGQEQGSLTVQCRYTSGWKDYKKYWCQGVPQRSCKTLVETDASEQLVKKNRVSIRDNQRDFIFTVTMEDLRMSDAGIYWCGITKGGLDPMFKVTVNIGP
For B1, the Kd (in general, a measure of binding affinity in units of concentration) in assay [1] amounted to 540 nM.

B2: murine CD300lf ectodomain (receptor)
chain: MAEDPVTGPEEVSGQEQGSLTVQCRYTSGWKDYKKYWCQGVPQRSCKTLVETDASEQLVKKNRVSIRDNQRDFIFTVTMEDLRMSDAGIYWCGITKGGLDPMFKVTVNIGPVPT
Turning to B2, in assay [2], the Kd is 24.5 µM and ~24.3 µM and 12 µM; the stoichiometry N (commonly a count of units in the complex or per binding partner) is about 1. The molecule also yielded a Kd in assay [3] of 219 µM.

For the origin of these results see paper PMC6166816 (Proceedings of the National Academy of Sciences of the …, 2018).
